Laboratory results published in US20160068595A1 (DEVELOPMEN CENTER FOR BIOTECHNOLOGY, published 2016).

T1: human IL-20 (interleukin-20), recombinant (human, UniProt Q9NYY1 25-176)
T1 construct: Analyte in the BIAcore assay and stimulus (300 pM) in the BaF3 proliferation assay; also called hIL-20; human cytokine IL20
T1 sequence (looked up): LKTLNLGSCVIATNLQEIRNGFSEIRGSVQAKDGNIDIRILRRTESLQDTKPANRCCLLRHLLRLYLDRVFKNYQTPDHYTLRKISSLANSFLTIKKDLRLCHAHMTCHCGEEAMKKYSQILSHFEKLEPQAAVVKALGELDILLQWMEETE


Columns and labels:
[1] = molecular target: T1, human IL-20 (interleukin-20), …; test: SPR, BIAcore T100; antibody captured on anti-human IgG CM5 chip, IL-20 as analyte, 1:1 model
Method: The human IL-20-binding kinetics of each purified anti-IL-20 antibody was estimated by surface plasmon resonance measurements using the BIAcore T100 biosensor system. The anti-IL-20 Ab was captured on an anti-human IgG immobilized CM5 sensor chip. The immobilized level of anti-human IgG was about 9,000-10,000 RU and the capture level of anti-IL-20 antibody was about 350-400 RU. Binding was carried out at constant flow rates of 30 μL/min of IL-20 at various dilutions in HEPES buffered saline (BIA certified) for 60 seconds. Dissociations were carried out by passing through HEPES buffer for 480 seconds. Regeneration of the surface was carried out by […] 10 mM Glycine pH 2.0/1.5 (50:50) for 40 seconds.
The IL-20 affinity of each of the anti-IL-20 antibodies were calculated from an affinity binding curve fit using the predefined model (1:1 binding) provided by Biacore T100 evaluation software 2.0.

[2] = molecular target: T1, human IL-20 (interleukin-20), …; test: binding kinetics of CDR mutants; method not named

| Kd [1] | koff [1] | kon [1] | Kd [2] | koff [2] | kon [2] | Binder |
| --- | --- | --- | --- | --- | --- | --- |
| 781 pM | 0.000711 s⁻¹ | 911000 M⁻¹ s⁻¹ | – | – | – | mouse anti-IL-20 monoclonal antibody 7E (antibody, V domains shown, Mouse monoclonal antibody; The BIAcore method captures antibody on anti-human IgG; also called mAb 7E; mAb E7) VH: ELKLEESGGGLVQPGGSMKLSCAASGFTFSDAWMDWVRQSPEKGLEWIAEIRSKANNYATYFAESVKGRFTISRDDSKSGVYLQMNNLRAEDTGIYFCTKLSLRYWFFDVWGAGTTVTVSS VL: not shown |
| – | – | – | 437 pM | 0.000431 s⁻¹ | 988000 M⁻¹ s⁻¹ | FLB35 (HH12 variant) (antibody, V domains shown) VH: EVQLQESGGGLVQPGGSLRLSCAASGFTFSDAWMDWVRQAPGKGLEWVGEIRSKANNYATYFAESVKGRFTISRDDSKNSLYLQMNSLKTEDTGVYYCTKLDLRYWFFDVWGQGTLVTVSS VL: DIQMTQSPLSLSVTPGQPASISCKSSQSLLDYDGKTYLNWYQQKPGQSPQLLIYLVSKLDSGVPDRFSGSGSGTDFTLKISRVEAEDVGVYYCWQSTLFPWTFGQGTKVEIKR |
| – | – | – | 803 pM | 0.000713 s⁻¹ | 888000 M⁻¹ s⁻¹ | FLB67 (HH12 variant) (antibody, V domains shown) VH: EVQLQESGGGLVQPGGSLRLSCAASGFTFSDAWMDWVRQAPGKGLEWVGEIRSKANNYATYFAESVKGRFTISRDDSKNSLYLQMNSLKTEDTGVYYCTKLSLQYWFFDVWGQGTLVTVSS VL: DIQMTQSPLSLSVTPGQPASISCKSSQSLLDYDGKTYLNWYQQKPGQSPQLLIYQVSKLDSGVPDRFSGSGSGTDFTLKISRVEAEDVGVYYCWQSTHFPWTFGQGTKVEIKR |
| – | – | – | 4030 pM | 0.00283 s⁻¹ | 703000 M⁻¹ s⁻¹ | FLB35(S) (FLB35 with Ser at CDRL1 position 27E) (antibody, V domains shown) VH: EVQLQESGGGLVQPGGSLRLSCAASGFTFSDAWMDWVRQAPGKGLEWVGEIRSKANNYATYFAESVKGRFTISRDDSKNSLYLQMNSLKTEDTGVYYCTKLDLRYWFFDVWGQGTLVTVSS VL: DIQMTQSPLSLSVTPGQPASISCKSSQSLLDSDGKTYLNWYQQKPGQSPQLLIYLVSKLDSGVPDRFSGSGSGTDFTLKISRVEAEDVGVYYCWQSTLFPWTFGQGTKVEIKR |
